B1: OsBiP1-HA (natural protein)
chain: not shown
notes: full-length cDNA; The coding region was inserted into the Pro35S-ShΔ:2HA-6His vector; source: protoplasts from rice Oc cells, transfected by electroporation, in extract; not shown: 2x HA, C-terminal, kept; His6, C-terminal, kept
B2: OsBiP5-HA (natural protein)
chain: not shown
notes: as for B1

Assays:
Experiment in all cases: co-IP; J-protein-3xFLAG and OsBiP-2HA-6His co-transfected into rice Oc cell protoplasts, overnight at 28 °C; extract in 50 mM TRIS-HCl pH 7.5, 150 mM NaCl, 0.5% Triton X-100; anti-FLAG M2 magnetic beads 2 h at 4 °C; washed with NET buffer (0.1% NP-40); blots with anti-FLAG-HRP and anti-HA-HRP; recovery of BiP-HA over input, relative to BiP1-HA
Conditions in all cases: partners not purified
[1] = target: T1, OsP58A-FLAG (rice (Oryza sativa), UniProt A0A0P0VG31 29-476)
T1 construct: OsP58A, rice ER-resident J-protein (P58IPK type: two TPR-like regions followed by a J-domain), encoded by Os02g0195300; full-length coding region; also called Os02g0195300; source: protoplasts from rice Oc cells, transfected by electroporation, in extract; not shown: 3x FLAG, C-terminal, kept
T1 sequence (looked up): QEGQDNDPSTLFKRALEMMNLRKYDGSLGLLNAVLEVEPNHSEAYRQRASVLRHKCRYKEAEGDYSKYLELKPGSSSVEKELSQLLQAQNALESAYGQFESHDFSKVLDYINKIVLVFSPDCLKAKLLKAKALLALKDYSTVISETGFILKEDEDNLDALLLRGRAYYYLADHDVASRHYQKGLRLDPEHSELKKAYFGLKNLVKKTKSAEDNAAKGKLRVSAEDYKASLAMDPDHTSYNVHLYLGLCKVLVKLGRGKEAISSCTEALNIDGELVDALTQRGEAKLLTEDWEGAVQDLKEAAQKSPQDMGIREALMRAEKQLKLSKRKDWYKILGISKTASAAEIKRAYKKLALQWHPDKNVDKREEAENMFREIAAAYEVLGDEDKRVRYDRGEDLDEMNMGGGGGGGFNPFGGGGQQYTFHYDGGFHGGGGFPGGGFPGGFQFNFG

[2] = target: T2, OsERdj3B-FLAG (rice (Oryza sativa), UniProt B9FHF3 24-347)
T2 construct: OsERdj3B, rice ER-resident J-protein of 347 amino acid residues (N-terminal J-domain, zinc finger motif, DnaJ C-terminal domain), encoded by Os05g0156500; full-length coding region; also called Os05g0156500; source: protoplasts from rice Oc cells, transfected by electroporation, in extract; not shown: 3x FLAG, C-terminal, kept
T2 sequence (looked up): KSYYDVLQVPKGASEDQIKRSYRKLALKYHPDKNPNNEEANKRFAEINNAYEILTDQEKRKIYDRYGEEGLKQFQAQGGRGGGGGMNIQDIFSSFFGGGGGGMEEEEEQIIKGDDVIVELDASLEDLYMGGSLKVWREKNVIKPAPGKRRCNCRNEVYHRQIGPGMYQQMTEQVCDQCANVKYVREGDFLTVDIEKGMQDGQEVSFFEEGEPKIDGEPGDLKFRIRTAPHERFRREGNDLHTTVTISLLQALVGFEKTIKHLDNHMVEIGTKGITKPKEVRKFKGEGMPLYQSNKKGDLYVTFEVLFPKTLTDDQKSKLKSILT

[3] = target: T3, OsERdj3A-FLAG (rice (Oryza sativa), UniProt Q10MW6 26-582)
T3 construct: OsERdj3A, rice ER-resident J-protein (N-terminal J-domain followed by a thioredoxin-like region), encoded by Os03g0293000; also called Os03g0293000; source: protoplasts from rice Oc cells, transfected by electroporation, in extract; not shown: 3x FLAG, C-terminal, kept
T3 sequence (Q10MW6 26-582): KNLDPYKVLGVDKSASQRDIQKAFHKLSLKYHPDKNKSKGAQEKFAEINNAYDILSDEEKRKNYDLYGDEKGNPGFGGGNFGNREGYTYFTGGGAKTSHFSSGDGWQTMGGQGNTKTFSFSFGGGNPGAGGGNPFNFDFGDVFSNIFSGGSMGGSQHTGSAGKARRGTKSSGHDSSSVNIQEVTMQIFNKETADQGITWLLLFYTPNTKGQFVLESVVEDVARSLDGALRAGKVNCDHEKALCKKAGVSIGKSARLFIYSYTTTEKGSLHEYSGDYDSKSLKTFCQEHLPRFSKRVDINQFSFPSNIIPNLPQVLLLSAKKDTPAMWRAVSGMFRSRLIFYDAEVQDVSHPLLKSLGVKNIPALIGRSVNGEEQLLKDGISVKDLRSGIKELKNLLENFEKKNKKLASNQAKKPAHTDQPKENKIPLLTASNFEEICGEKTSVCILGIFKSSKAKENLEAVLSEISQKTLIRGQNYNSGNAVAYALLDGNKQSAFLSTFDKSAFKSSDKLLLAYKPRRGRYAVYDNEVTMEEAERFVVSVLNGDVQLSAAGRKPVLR

Row | Binder | fold higher affinity than OsBiP3-HA (recovery in co-IP) [1] | fold higher affinity than OsBiP3-HA (recovery in co-IP) [2] | fold higher affinity than OsBiP5-HA (recovery in co-IP) [2] | fold higher level than OsBiP1-HA (recovery in co-IP) [3]
1 | B1 | 4 fold | ~2 fold | ~3 fold | –
2 | B2 | – | – | – | 4 fold

— PMC3871807, “Analysis of rice ER-resident J-proteins reveals diversity and functional differentiation of the ER-resident Hsp70 system in plants” (Journal of Experimental Botany, 2013)
